# ± gives the uncertainty stated by the source.
# Assay: amyloid nucleation score (Sup35N fusion, yeast selection) (log enrichment); library NNK1; higher = more nucleation; inactive = no reads after selection
# In short: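 For the nucleation score, DiMSum gave the log enrichment of output over input reads, centred on the mode score of non-aggregating sequences. Psi-negative yeast expressing Sup35N fused to peptides of 20 random codons were induced with 100 μM copper sulfate for 24 hours and grown 7 days at 30°C on medium lacking adenine and uracil. Input and output plasmid inserts were Illumina-sequenced, and sequences with under 100 input reads were excluded.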
row,Substance,amyloid nucleation score
1,FNGGNTFVCVSLDTCWNGWY,7.54 ± 0.085
2,GCFASTSNTRC,1.05 ± 0.66
3,LFYSNMIVTVSRSVVRMRGA,0.659 ± 0.79
4,TYSVTFF,0.231 ± 0.4
5,VTSLCYRNFFGVVEVLRYCQ,0.677 ± 0.51
6,YNSTAIHNYENRRDLHQLYL,0.139 ± 0.33
7,AGLVYEIKWYYADL,-0.482 ± 0.33
8,HDFYEDIVMEYVL,1.55 ± 0.51
9,YPQMLVSVLRFMYY,0.009 ± 0.26
10,LVDSNFCVNVCAGQSRRVYG,-0.712 ± 0.8
11,IKILLNWHV,-0.628 ± 1.7
12,LSTYTMLF,-0.168 ± 0.28
13,LYSDGLFANRTWLYF,1.01 ± 0.61
14,ELTRGLWRFGAEWWATQQKT,0.364 ± 0.31
15,SRISMVMVLSLFSVKFRWNP,0.328 ± 0.24
16,GQAWKDAVQNYDMLAYMLKG,-0.375 ± 0.54
17,MIQVPFKCPCKLTADLGGNW,inactive
18,VSMHWSISRCIC,0.772 ± 0.43
19,YSEFRDSLRSGIPLVPFVIQ,0.066 ± 0.88
20,ISNMETGHLEYSLRLAPKYC,-0.658 ± 0.82
21,TYRTWLYLPLQCAIYLGVSL,-0.436 ± 0.64
22,SVLYRINP,-1.55 ± 2.4

row,Substance,amyloid nucleation score
1,EPFGLGFRRNDLSYANRVGS,-0.887 ± 1.3
2,NRYRCYDCTLVGRVSYS,-0.436 ± 0.29
3,CILRRMDADFIFIVCVDCFG,-0.055 ± 0.4
4,CMSLFRYENVQYLFTRIHSI,1.43 ± 0.34
5,LIIRVWLKNQPDTLGKRRRE,-0.415 ± 1.4
6,WRVYQSFGDLAVCTF,0.326 ± 0.45
7,VLLYKSLAV,0.964 ± 0.15
8,IDMIVGNLN,inactive
9,PLTVVLRSV,inactive
10,PCSVISGHLTSMSSLSLFGG,-0.299 ± 0.32
11,SQFYVLVIWLSCALSMGSSI,-0.04 ± 0.45
12,CWAKEFFNNESIRG,0.077 ± 0.49
13,ASHLIYCFEARASLILL,0.686 ± 1.1
14,PFLAKVLCNVWNI,6.8 ± 0.047
15,TLCIVNIGSFVEDEKGDN,7.19 ± 0.073
16,LMRHMFAWVDFIFSGSTQAC,1.14 ± 0.97
17,EPSGLLFSTLGTSTYGYIQF,2.27 ± 0.11
18,TKTSTSFGRVKPVN,0.793 ± 0.85
19,YLVITLFPEIIIDYLSYLCP,4.52 ± 0.079
20,CSHGNYHITCCPHAFFMTAI,4.91 ± 0.098
21,GKSNLARHAPNLEVTMRGTE,1.27 ± 0.42
22,VVLCGDCFSLSLFWDCLWPF,4.38 ± 0.078

row,Substance,amyloid nucleation score
1,VWRADMCSHS,-0.17 ± 0.53
2,DKLKLNRVRSSISSYNKQNK,1.06 ± 0.28
3,IFTVSRGPVTLCWDWWETHA,0.196 ± 0.56
4,NFFIWLMVFIGDFFDLVTSA,-0.94 ± 0.59
5,VSLRTISWNMLLNDCWHVKM,0.176 ± 0.72
6,IKVSIIGWGYILAPGGESNV,-1.28 ± 0.69
7,LCSWADLDNKDLKSPR,0.102 ± 0.43
8,LMRDSCHDQQVLGCFYMSKL,-0.215 ± 1.2
9,QTVGKVDVVDCLVLVVRLTI,-0.003 ± 0.57
10,TVRGSTRSKLSGASWQCWRA,-0.023 ± 0.21
11,RVCCWHFTFVTVCCKLLSMT,1.93 ± 0.23
12,CHQFV,0.833 ± 0.5
13,SNIQDCYRFEGLHKKTNENL,-0.684 ± 0.91
14,YASTSNILLSIS,0.546 ± 0.2
15,SLNPALFTVSYPLVMLENDT,0.19 ± 0.29
16,PFQECFLRKVYWIIWRSRPK,0.255 ± 1.2
17,NNLRYPCLGRCSISFGMVCG,0.593 ± 0.41
18,VYASLTL,-1.26 ± 1.7
19,LAGMTSKHFTLRMMSHLDSY,0.043 ± 1
20,NSGEEYVRVEGNCAFKSLSC,0.416 ± 0.15
21,NKCKKYGYLFRLSGYEGHNL,5.54 ± 0.091
22,DAQFGRHVLGLFFSRQEMLV,-1.52 ± 1.2

row,Substance,amyloid nucleation score
1,ELTGFFFCVRTSKCRIW,0.533 ± 0.46
2,VDHVGGWVYWYGTRCTFVDG,-0.048 ± 0.27
3,GDELKRVWYLGTLSRMRGTE,-0.574 ± 0.62
4,RDRDVEFTNDL,0.614 ± 0.75
5,EGIIYS,-0.692 ± 1.1
6,QHVMPWPWWMGLSSLDRWYL,1.44 ± 0.49
7,MMKVIAANRVY,0.315 ± 0.63
8,TCLADLDWSRGGGYYPHRLC,0.372 ± 1.2
9,LRMKVINRNPWVKTLSFVLA,-0.297 ± 1.1
10,HIMYSLKASSHWSPIVFSHH,0.669 ± 0.59
11,VTHVFYAVLGGMRMGLNFPT,-0.192 ± 0.4
12,CFSQVCDKFMMEMMFSCFKV,0.451 ± 0.24
13,NACFSIKQTYWNVT,0.537 ± 0.34
14,TDSILKRYGMSFDFWRSWRN,0.76 ± 0.23
15,GFVTWPLSRSPGSPGCAALM,0.015 ± 0.39
16,VWFPKTDTGVTS,0.428 ± 0.34
17,WWLLSLP,0.196 ± 0.26
18,NKMIKWASQDGCRKVRFSEE,-0.427 ± 0.4
19,WVTHRL,-0.715 ± 1.2
20,IARFHTDSYHYRY,-0.08 ± 1.1
21,NTYWVSSAS,0.078 ± 0.64
